Source: the supplement of paper PMC10567573

B1: ALDH8A1 (parent)
chain: FTGSQPTAERITQLSAPHCKKLSL
B2: EPB41L3 (parent)
chain: GSKFRYSGRTQAQTRRASALIDRP

Variants of: B1
Assay: protein stability index of a GFP-peptide fusion (GPS, HEK-293T) (PSI 1-6); higher = more stable
Conditions: c terminus: a fixed tail appended
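Note: lentivirally expressed fusions sorted by FACS into six bins by GFP to DsRed ratio, PSI derived from sequencing read proportions per bin multiplied by bin number.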

First: FTGSQPTAERITQLSAPHCKKLSW [L24W]
Second: FTGSQPTAERITQLSAPHCKKLSY [L24Y]
The protein stability index of the first is lower: 1.93 for the first, 2.2 for the second.

Work on FTGSQPTAERITQLSAPHCKKLSV [L24V] yielded a protein stability index of 2.38.

Variants of: B2
Assay: as above
Conditions: c terminus: a fixed tail appended

First: GSKFRYVGRTQAQTRRASALIDRP [S7V]
Second: GSKFRYFGRTQAQTRRASALIDRP [S7F]
The protein stability index of the first is lower: 2.15 for the first, 2.96 for the second.

Compared with GSKFRYQGRTQAQTRRASALIDRP [S7Q], GSKFRYLGRTQAQTRRASALIDRP [S7L] is higher in protein stability index: 2.86 for the first, 3.08 for the second.

First: GSKFRYEGRTQAQTRRASALIDRP [S7E]
Second: GSKFRYMGRTQAQTRRASALIDRP [S7M]
The protein stability index of the first is higher: 3.63 for the first, 3.35 for the second.

First: GSKFRYYGRTQAQTRRASALIDRP [S7Y]
Second: GSKFRYDGRTQAQTRRASALIDRP [S7D]
The protein stability index of the first is lower: 2.71 for the first, 3.68 for the second.

Compared with GSKFRYNGRTQAQTRRASALIDRP [S7N], GSKFRYHGRTQAQTRRASALIDRP [S7H] is lower in protein stability index: 3.05 for the first, 2.94 for the second.

Compared with GSKFRYPGRTQAQTRRASALIDRP [S7P], GSKFRYIGRTQAQTRRASALIDRP [S7I] is lower in protein stability index: 3.36 for the first, 1.95 for the second.

Compared with GSKFRYTGRTQAQTRRASALIDRP [S7T], GSKFRYCGRTQAQTRRASALIDRP [S7C] is lower in protein stability index: 2.95 for the first, 2.1 for the second.

First: GSKFRYKGRTQAQTRRASALIDRP [S7K]
Second: GSKFRYGGRTQAQTRRASALIDRP [S7G]
The protein stability index of the first is lower: 3.79 for the first, 3.85 for the second.

First: GSKFRYRGRTQAQTRRASALIDRP [S7R]
Second: GSKFRYWGRTQAQTRRASALIDRP [S7W]
The protein stability index of the first is higher: 3.73 for the first, 2.4 for the second.

Going from GSKFRYAGRTQAQTRRASALIDRP [S7A] to GYKFRYSGRTQAQTRRASALIDRP [S2Y], the protein stability index falls from 2.91 to 2.68.

First: GKKFRYSGRTQAQTRRASALIDRP [S2K]
Second: GAKFRYSGRTQAQTRRASALIDRP [S2A]
The protein stability index of the first is higher: 3.56 for the first, 2.66 for the second.

First: GMKFRYSGRTQAQTRRASALIDRP [S2M]
Second: GTKFRYSGRTQAQTRRASALIDRP [S2T]
The protein stability index of the first is lower: 2.27 for the first, 2.82 for the second.

Going from GFKFRYSGRTQAQTRRASALIDRP [S2F] to GCKFRYSGRTQAQTRRASALIDRP [S2C], the protein stability index falls from 2.55 to 2.44.

Going from GLKFRYSGRTQAQTRRASALIDRP [S2L] to GHKFRYSGRTQAQTRRASALIDRP [S2H], the protein stability index rises from 2.33 to 2.98.

Compared with GWKFRYSGRTQAQTRRASALIDRP [S2W], GGKFRYSGRTQAQTRRASALIDRP [S2G] is higher in protein stability index: 2.44 for the first, 3.31 for the second.

First: GVKFRYSGRTQAQTRRASALIDRP [S2V]
Second: GEKFRYSGRTQAQTRRASALIDRP [S2E]
The protein stability index of the first is lower: 2.5 for the first, 3.98 for the second.

Compared with GNKFRYSGRTQAQTRRASALIDRP [S2N], GIKFRYSGRTQAQTRRASALIDRP [S2I] is higher in protein stability index: 2.6 for the first, 2.74 for the second.

First: GDKFRYSGRTQAQTRRASALIDRP [S2D]
Second: GRKFRYSGRTQAQTRRASALIDRP [S2R]
The protein stability index of the first is higher: 4.02 for the first, 2.51 for the second.

First: GPKFRYSGRTQAQTRRASALIDRP [S2P]
Second: GQKFRYSGRTQAQTRRASALIDRP [S2Q]
The protein stability index of the first is lower: 2.6 for the first, 2.77 for the second.

Compared with GSQFRYSGRTQAQTRRASALIDRP [K3Q], GSFFRYSGRTQAQTRRASALIDRP [K3F] is lower in protein stability index: 2.96 for the first, 2.34 for the second.

Going from GSTFRYSGRTQAQTRRASALIDRP [K3T] to GSWFRYSGRTQAQTRRASALIDRP [K3W], the protein stability index falls from 2.74 to 2.46.

Going from GSGFRYSGRTQAQTRRASALIDRP [K3G] to GSEFRYSGRTQAQTRRASALIDRP [K3E], the protein stability index rises from 1.94 to 2.19.

Going from GSHFRYSGRTQAQTRRASALIDRP [K3H] to GSPFRYSGRTQAQTRRASALIDRP [K3P], the protein stability index falls from 2.33 to 2.04.

Compared with GSMFRYSGRTQAQTRRASALIDRP [K3M], GSVFRYSGRTQAQTRRASALIDRP [K3V] is lower in protein stability index: 2.84 for the first, 2.33 for the second.

Going from GSRFRYSGRTQAQTRRASALIDRP [K3R] to GSYFRYSGRTQAQTRRASALIDRP [K3Y], the protein stability index falls from 2.83 to 1.89.

Going from GSLFRYSGRTQAQTRRASALIDRP [K3L] to GSCFRYSGRTQAQTRRASALIDRP [K3C], the protein stability index falls from 2.92 to 1.75.

Compared with GSAFRYSGRTQAQTRRASALIDRP [K3A], GSNFRYSGRTQAQTRRASALIDRP [K3N] is higher in protein stability index: 2.02 for the first, 3.08 for the second.

Going from GSSFRYSGRTQAQTRRASALIDRP [K3S] to GSDFRYSGRTQAQTRRASALIDRP [K3D], the protein stability index falls from 2.64 to 2.5.

Going from GSIFRYSGRTQAQTRRASALIDRP [K3I] to GSKFDYSGRTQAQTRRASALIDRP [R5D], the protein stability index rises from 2.67 to 3.74.

First: GSKFMYSGRTQAQTRRASALIDRP [R5M]
Second: GSKFYYSGRTQAQTRRASALIDRP [R5Y]
The protein stability index of the first is higher: 4.43 for the first, 2.82 for the second.

Going from GSKFWYSGRTQAQTRRASALIDRP [R5W] to GSKFQYSGRTQAQTRRASALIDRP [R5Q], the protein stability index rises from 2.62 to 3.26.

Going from GSKFAYSGRTQAQTRRASALIDRP [R5A] to GSKFPYSGRTQAQTRRASALIDRP [R5P], the protein stability index falls from 3.49 to 3.27.

Going from GSKFFYSGRTQAQTRRASALIDRP [R5F] to GSKFGYSGRTQAQTRRASALIDRP [R5G], the protein stability index rises from 2.89 to 3.8.

First: GSKFHYSGRTQAQTRRASALIDRP [R5H]
Second: GSKFLYSGRTQAQTRRASALIDRP [R5L]
The protein stability index of the first is higher: 3.1 for the first, 2.71 for the second.

Compared with GSKFSYSGRTQAQTRRASALIDRP [R5S], GSKFIYSGRTQAQTRRASALIDRP [R5I] is lower in protein stability index: 3.8 for the first, 3.07 for the second.

First: GSKFCYSGRTQAQTRRASALIDRP [R5C]
Second: GSKFEYSGRTQAQTRRASALIDRP [R5E]
The protein stability index of the first is lower: 2.67 for the first, 4.08 for the second.

Compared with GSKFKYSGRTQAQTRRASALIDRP [R5K], GSKFVYSGRTQAQTRRASALIDRP [R5V] is higher in protein stability index: 2.73 for the first, 3.2 for the second.

Going from GSKFTYSGRTQAQTRRASALIDRP [R5T] to GSKFNYSGRTQAQTRRASALIDRP [R5N], the protein stability index falls from 3.59 to 3.23.

Going from GSKFRYSGKTQAQTRRASALIDRP [R9K] to GSKFRYSGSTQAQTRRASALIDRP [R9S], the protein stability index rises from 2.97 to 3.44.

Going from GSKFRYSGETQAQTRRASALIDRP [R9E] to GSKFRYSGPTQAQTRRASALIDRP [R9P], the protein stability index rises from 3.53 to 3.87.

First: GSKFRYSGATQAQTRRASALIDRP [R9A]
Second: GSKFRYSGTTQAQTRRASALIDRP [R9T]
The protein stability index of the first is lower: 2.88 for the first, 3.01 for the second.

First: GSKFRYSGYTQAQTRRASALIDRP [R9Y]
Second: GSKFRYSGGTQAQTRRASALIDRP [R9G]
The protein stability index of the first is lower: 2.4 for the first, 3.32 for the second.

First: GSKFRYSGWTQAQTRRASALIDRP [R9W]
Second: GSKFRYSGITQAQTRRASALIDRP [R9I]
The protein stability index of the first is lower: 2.33 for the first, 2.81 for the second.

First: GSKFRYSGNTQAQTRRASALIDRP [R9N]
Second: GSKFRYSGCTQAQTRRASALIDRP [R9C]
The protein stability index of the first is higher: 3.7 for the first, 2.94 for the second.

Going from GSKFRYSGHTQAQTRRASALIDRP [R9H] to GSKFRYSGMTQAQTRRASALIDRP [R9M], the protein stability index falls from 2.93 to 2.85.

Variant GSKFRYSGVTQAQTRRASALIDRP [R9V] has a protein stability index of 2.85.
